# Source: the supplement of paper PMC10598134
# ± gives the standard deviation.
# Test: collision cross section of unmodified peptide (TIMS, N2, iRT-aligned); higher = larger / more extended gas-phase ion
# Protocol: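 Unmodified synthetic counterpart peptides (ProteomeTools / JPT), analysed by nanoLC-TIMS-QTOF (dda-PASEF). 1/K0 was aligned run-wise to spiked iRT peptides and converted to CCS in N2 (Mason-Schamp). Values are the mean of 1-3 technical replicates for the most abundant feature at each charge state. The same unmodified peptide is repeated across rows and is averaged.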
Substance,collision cross section (charge state: 2),collision cross section (charge state: 3)
GLPGLAGDHGEFGEK,432.07 ± 1 Å²,504.1 ± 0.34 Å²
VFSIISSEKELK,413.02 ± 1.5 Å²,485.92 ± 5.3 Å²
TQAEGQGQGRGLGLVSAVR,–,513.29 ± 0.77 Å²
TSYAQHQQVR,367.57 ± 0.48 Å²,444.63 ± 0.86 Å²
VFLDCCNYITELR,421.63 ± 0.67 Å²,–
TQAYQDQKPGTSGLR,425.76 ± 1.4 Å²,489.83 ± 5.9 Å²
VYSLFLDESR,376.99 ± 0.94 Å²,–
IISSIEQKEENK,409.72 ± 2.2 Å²,479.1 ± 6.7 Å²
GLATFPSRGAK,368.08 ± 0.52 Å²,445.97 ± 5.5 Å²
AIEINPDSAQPYK,394.83 ± 1.7 Å²,–
YEITEQR,326.96 ± 0.72 Å²,–
IPQEKCILQTDVK,428.77 ± 2.5 Å²,470.55 ± 3.7 Å²
VGADGTVFATR,348.87 ± 0.14 Å²,–
RLPNVHGR,332.52 ± 0.039 Å²,419.7 ± 5.1 Å²
YEEIVKEVSTYIK,443.47 ± 2.8 Å²,492.72 ± 2.3 Å²
ISALQGKLSK,353.47 ± 1.4 Å²,435.93 ± 5.2 Å²
HHAAYVNNLNVTEEK,444.13 ± 2.1 Å²,494.31 ± 0.87 Å²
LEKTIDDLEEK,403.94 ± 1.9 Å²,470.73 ± 4.5 Å²
ITLSKHQNVQLPR,434.86 ± 3.1 Å²,515.94 ± 19 Å²
ASTPGAAAQIQEVK,395.93 ± 0.14 Å²,–
DSSPTTNSKLSALQR,418.1 ± 2.2 Å²,485.64 ± 4.2 Å²
VEELEGEITTLNHK,424.1 ± 0.66 Å²,513.8 ± 3.5 Å²
LAEQEAHYAVR,394.57 ± 1.1 Å²,471.99 ± 1.1 Å²
PGPQPSAETTR,342.87 ± 0.58 Å²,415.85 ± 2 Å²
GLPGEKGER,342.99 ± 1.2 Å²,394.07 ± 1.2 Å²
VFIGNLNTLVVKKK,–,483.04 ± 2.6 Å²

Substance,collision cross section (charge state: 2),collision cross section (charge state: 3)
SEASSEFAKK,351.87 ± 0.55 Å²,422.04 ± 3.9 Å²
AEGYEVAHGGR,358.34 ± 0.55 Å²,438.28 ± 0.89 Å²
PASGAGAGAGAGKR,378.29 ± 1.2 Å²,457.42 ± 4 Å²
GRGYFEHR,340.02 ± 0.52 Å²,409.47 ± 5.3 Å²
GPKGQQGEPGPK,356.26 ± 0.79 Å²,451.77 ± 0.63 Å²
KVQFAPEK,329.36 ± 0.58 Å²,–
SGGGYGGDRGGGYGGDR,393.08 ± 1.3 Å²,460.09 ± 0.81 Å²
PGLQGPR,285.1 ± 4.4 Å²,–
DLGKFQVATDALK,413.55 ± 3.7 Å²,498.11 ± 6.1 Å²
VNALKNLQVK,370.39 ± 1.1 Å²,436.61 ± 6 Å²
GTPGKPGPR,311.01 ± 0.77 Å²,–
PGTPAGYGRGR,352.56 ± 0.57 Å²,442.29 ± 3.7 Å²
GRGVGSPEPGPTAPYLGR,432.42 Å²,517.8 ± 0.62 Å²
QQETAAAETETR,373.98 ± 0.14 Å²,456.85 ± 0.22 Å²
HVSPVTPPR,327.76 ± 0.64 Å²,–
TGPPGSTGSRGPPGPPGR,–,459.15 ± 0.33 Å²
TQSFSLQER,347.63 ± 0.14 Å²,–
INNFSADIKDSK,403.18 ± 2.5 Å²,450.51 ± 4 Å²
DTGEKLTVAENEAETK,436.86 ± 2.7 Å²,520.99 ± 1.8 Å²
SLYASSPGGVYATR,405.12 ± 0.66 Å²,482.72 ± 0.22 Å²
LDYSDFQIVK,368.99 ± 0.6 Å²,–
SRFYSGFNSR,370.83 ± 0.54 Å²,436.82 ± 3.8 Å²
AGRGFSLEELR,376.05 ± 0.67 Å²,459.45 ± 3.3 Å²
GKLGVPGLPGYPGR,385.87 ± 0.86 Å²,480.85 ± 1.2 Å²
SEGFDTYR,330.1 ± 0.73 Å²,–
